Assay results: the supplement of paper PMC10724198
± gives the standard deviation of the averaged measurements.

System: Saccharomyces cerevisiae
Assay: protein stability index of tFT-peptide fusion (C-terminal peptide) (PSI (0-1 scale)); higher = more stable (slower turnover)
Settings: temperature: 30 C
Procedure: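 MPS profiling in S. cerevisiae of the yeast C-terminome library: the last 12 aa of each annotated ORF are fused to the C-terminus of a sfGFP-mCherry timer, after a GGGS linker. Cells are FACS-sorted into 8 mCherry/sfGFP bins and deep-sequenced. PSI runs from 0 (unstable) to 1 (stable); wild type and das1Δ backgrounds, two technical replicates each.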

[1] = genetic background: das1 deletion

Sequence	protein stability index [1]	protein stability index (genetic background: wild type)
GAQPHLYIPDED [USA1 C-terminal 12 aa]	0.6896 ± 0.0026	0.6982 ± 0.003
GCSLQISYARRD [GBP2 C-terminal 12 aa]	0.706 ± 0.018	0.6525 ± 0.0037
GCVKMYKFDLND [MET30 C-terminal 12 aa]	0.713 ± 0.044	0.7322 ± 0.0023
GDLLSLKGEIMQ [ALK2 C-terminal 12 aa]	0.689 ± 0.022	0.691 ± 0.029
GDVSNLPYLDEL [QCR2 C-terminal 12 aa]	0.694 ± 0.013	0.722 ± 0.039
GDYTVKQPEATK [AIM9 C-terminal 12 aa]	0.703 ± 0.013	0.672 ± 0.029
GEDPYMDLMKEF [TPK3 C-terminal 12 aa]	0.745 ± 0.013	0.733 ± 0.036
GEDTGPTVEEVD [SSA3 C-terminal 12 aa]	0.682 ± 0.013	0.684 ± 0.015
GGGVLQLISYIL [YSY6 C-terminal 12 aa]	0.706 ± 0.0057	0.656 ± 0.015
GGKDKMVRLWTH [RSA4 C-terminal 12 aa]	0.691 ± 0.011	0.698 ± 0.0076
GGPFPYYFNTFC [YKL169C C-terminal 12 aa]	0.704 ± 0.028	0.53 ± 0.027
GHSHKHKGHQKK [KRI1 C-terminal 12 aa]	0.673 ± 0.008	0.667 ± 0.018
GIHPPEPIAAAA [KTI11 C-terminal 12 aa]	0.3 ± 0.031	0.357 ± 0.017
GKNQWFFSKLRF [RPL27A C-terminal 12 aa]	0.707 ± 0.0096	0.683 ± 0.013
GLKQKSTIVTVD [CDC5 C-terminal 12 aa]	0.6917 ± 0.0015	0.717 ± 0.078
GLLVVFDRIDVK [MET7 C-terminal 12 aa]	0.667 ± 0.015	0.634 ± 0.013
GLTLIGRQSDSI [RAD7 C-terminal 12 aa]	0.7025 ± 0.0011	0.71 ± 0.074
GMYSRAYETHTL [ERG7 C-terminal 12 aa]	0.7 ± 0.012	0.696 ± 0.022
GNAEFAASLLFQ [DDI1 C-terminal 12 aa]	0.7205 ± 0.0066	0.7022 ± 0.0025
GNEPMEKFIQSL [YMR090W C-terminal 12 aa]	0.694 ± 0.005	0.669 ± 0.0072
GNSGGSNNSSWW [DED1 C-terminal 12 aa]	0.71484 ± 0.00065	0.697 ± 0.02

Sequence	protein stability index [1]	protein stability index (genetic background: wild type)
GNTGSGGYDNAW [RPB3 C-terminal 12 aa]	0.704 ± 0.052	0.723 ± 0.026
GPDAPLSKMKYE [SCS7 C-terminal 12 aa]	0.684 ± 0.0086	0.704 ± 0.0071
GQLLSGSCLLNM [YBR226C C-terminal 12 aa]	0.686 ± 0.013	0.679 ± 0.053
GRPSMVPIAELK [MLH3 C-terminal 12 aa]	0.672 ± 0.019	0.714 ± 0.062
GSGDEPDSKRRK [YCR051W C-terminal 12 aa]	0.693 ± 0.044	0.666 ± 0.037
GTQVMYISEQKI [LSM6 C-terminal 12 aa]	0.698 ± 0.0048	0.713 ± 0.016
GVEKYWGILSNE [SCW4 C-terminal 12 aa]	0.723 ± 0.0089	0.726 ± 0.039
GVETIAKCIDLL [CAR2 C-terminal 12 aa]	0.71 ± 0.017	0.698 ± 0.011
GVIIELGSWSAW [YDR415C C-terminal 12 aa]	0.7055 ± 0.0066	0.71701 ± 0.00054
GWLQDKHFEKYL [YOR338W C-terminal 12 aa]	0.705 ± 0.022	0.447 ± 0.03
HAKGSGNTMNRG [TAP42 C-terminal 12 aa]	0.691 ± 0.029	0.664 ± 0.015
HCQPQEILVLRQ [PEX10 C-terminal 12 aa]	0.7094 ± 0.0062	0.7 ± 0.013
HDRSESDSDLDI [PLP1 C-terminal 12 aa]	0.671 ± 0.015	0.677 ± 0.015
HELSKDFSNLGI [NAM7 C-terminal 12 aa]	0.7008 ± 0.00089	0.683 ± 0.038
HGNWSRVVTDLN [BAT2 C-terminal 12 aa]	0.6869 ± 0.0056	0.722 ± 0.1
HLENELKDQQEL [ATM1 C-terminal 12 aa]	0.718 ± 0.0099	0.715 ± 0.017
HLPKATSLPYEK [YER097W C-terminal 12 aa]	0.677 ± 0.0085	0.679 ± 0.055
HPWFAEYYHHAS [PHO85 C-terminal 12 aa]	0.7438 ± 0.0043	0.7174 ± 0.0026
HRSFFKDIIPEL [KIN82 C-terminal 12 aa]	0.723 ± 0.013	0.693 ± 0.022
IAEGKSVGIIGA [HXK2 C-terminal 12 aa]	0.694 ± 0.022	0.682 ± 0.018
IAKEHDKIPKFL [INA22 C-terminal 12 aa]	0.695 ± 0.027	0.672 ± 0.06

Sequence	protein stability index [1]	protein stability index (genetic background: wild type)
IASKNNWLPLQW [SIW14 C-terminal 12 aa]	0.73114 ± 0.00013	0.732 ± 0.045
IDDEDVVSLFAK [RBG2 C-terminal 12 aa]	0.714 ± 0.035	0.732 ± 0.057
IEEAASSLGFKR [PES4 C-terminal 12 aa]	0.726 ± 0.027	0.701 ± 0.023
IEELTDTLNSTI [PEX29 C-terminal 12 aa]	0.7059 ± 0.0039	0.698 ± 0.024
IEQSFGVIEYFP [SCW11 C-terminal 12 aa]	0.717 ± 0.037	0.71 ± 0.011
IFHELKRQNSKN [RGD2 C-terminal 12 aa]	0.739 ± 0.035	0.717 ± 0.052
IFVYPLFLLSTF [YEL053W-A C-terminal 12 aa]	0.482 ± 0.051	0.335 ± 0.0099
IGTLIPEPGVNV [DAP1 C-terminal 12 aa]	0.6825 ± 0.0027	0.676 ± 0.032
IHCRSQNCLSLS [VBA4 C-terminal 12 aa]	0.687 ± 0.024	0.681 ± 0.016
IHKENKEFYLIL [YGL118C C-terminal 12 aa]	0.703 ± 0.015	0.6731 ± 0.00094
IIDELEQIALQQ [BRE2 C-terminal 12 aa]	0.69735 ± 0.00015	0.748 ± 0.04
IIDELQKCHMQE [CDC27 C-terminal 12 aa]	0.706 ± 0.0081	0.6895 ± 0.0016
IKCKMPWSSPRQ [YOR238W C-terminal 12 aa]	0.705 ± 0.03	0.744 ± 0.032
ILDLDPRTEAYC [YGL260W C-terminal 12 aa]	0.733 ± 0.02	0.691 ± 0.013
ILDMFAKRWILS [IZH3 C-terminal 12 aa]	0.697 ± 0.015	0.552 ± 0.043
ILDSFEEWSDEE [HDA1 C-terminal 12 aa]	0.7224 ± 0.0053	0.688 ± 0.0073
ILFSFFCNLVAK [VTC4 C-terminal 12 aa]	0.524 ± 0.011	0.4997 ± 0.0011
ILKKNPDYREEE [RPN1 C-terminal 12 aa]	0.696 ± 0.0054	0.7029 ± 0.0058
ILTLVETLSEQE [VMA22 C-terminal 12 aa]	0.704 ± 0.009	0.7049 ± 0.0056
INDKYKSNRTDS [ATG2 C-terminal 12 aa]	0.697 ± 0.022	0.7162 ± 0.00084
INGIIDPSELSD [ALO1 C-terminal 12 aa]	0.69 ± 0.029	0.68 ± 0.0073

Sequence	protein stability index [1]	protein stability index (genetic background: wild type)
INIVVDMLASQH [RMD1 C-terminal 12 aa]	0.606 ± 0.025	0.591 ± 0.011
IPLVISYCISEE [ATX2 C-terminal 12 aa]	0.575 ± 0.013	0.596 ± 0.024
IPNIFGKFTVTS [YKL091C C-terminal 12 aa]	0.697 ± 0.0085	0.683 ± 0.013
IQAMLKSLDSLK [SNL1 C-terminal 12 aa]	0.691 ± 0.034	0.66 ± 0.03
IQEDSPVMDNNT [FAP1 C-terminal 12 aa]	0.722 ± 0.041	0.674 ± 0.036
IQVVKSKVLNIE [YDR248C C-terminal 12 aa]	0.691 ± 0.028	0.653 ± 0.016
IRSLPLPFPHMD [MIG1 C-terminal 12 aa]	0.723 ± 0.0091	0.757 ± 0.053
IVNVMFCLVRGF [DSC3 C-terminal 12 aa]	0.42 ± 0.021	0.404 ± 0.03
IVTKMDLLSYLA [CYS4 C-terminal 12 aa]	0.674 ± 0.013	0.478 ± 0.0082
IWCAPTVDARPI [NIT1 C-terminal 12 aa]	0.7229 ± 0.0014	0.6998 ± 0.0015
IYENDPNTKKNN [ERG3 C-terminal 12 aa]	0.736 ± 0.022	0.72 ± 0.049
KAASLSLKSTKY [PRP5 C-terminal 12 aa]	0.71161 ± 0.00019	0.673 ± 0.013
KADIACAGKQLI [YHL042W C-terminal 12 aa]	0.676 ± 0.0096	0.698 ± 0.0097
KADNWKCKIQSA [GDA1 C-terminal 12 aa]	0.69 ± 0.018	0.641 ± 0.011
KAERCQYRLVTA [YCR025C C-terminal 12 aa]	0.475 ± 0.031	0.508 ± 0.012
KAFFISKTLPCI [YLR112W C-terminal 12 aa]	0.7141 ± 0.0031	0.766 ± 0.07
KAMILTSYRYLE [CLP1 C-terminal 12 aa]	0.675 ± 0.035	0.677 ± 0.056
KCVNCGHRWKEN [RPC11 C-terminal 12 aa]	0.708 ± 0.012	0.616 ± 0.02
KDFQVNKEIKPY [SIR4 C-terminal 12 aa]	0.713 ± 0.052	0.7378 ± 0.00099
